In US20110263454A1, “Methods of Identifying Functional Characteristics of Promoters, Transcription Modifying Proteins and Transcription Modulating Agents” (Salk Institute for Biological Studies, priority 2008, published 2011):

What was measured:
[1] = tested on: Bmal1 promoter; experiment: NHR-promoter luciferase screen, Bmal1 promoter; assay type: cell-based, mouse; details: for Luc. act., normalized to lacZ / Normalized Luc. act., normalized to control: Bmal1 promoter, HR component without or with ligand; for regulation of the Bmal1 promoter: FIG. 2c, in words; for mBmal1 promoter reporter activity: transcription factor +/- ligand, control = 1.00
Method: (§1) The use, feasibility, and reproducibility of the functional NHR-promoter screen in a 48-well format have been tested validated. Briefly, there were co-expressed 50 ng of each NHR/NHR homodimer or NHR/RXR heterodimer with 100 ng promoter/luciferase construct and 50 ng of LacZ (as a control for transfection efficiency) in CV-1 cells using Fugene HD (Roche) as a transfection reagent (alternatively or additionally, a CMV-YFP construct can be used as a transfection control). Each of the nuclear hormone receptors that were used in these experiments was cloned into a pcDNA3.1 vector and comprised a C-terminally linked V5H6 tag. Twenty-four hours after transfection, appropriate ligands were added, where applicable, (see Table 5 for various ligands and concentrations and after 48 hrs, samples were assayed for luciferase and LacZ activity. To measure for luciferase activity 15 ul of sample was added to 30 ul of luciferase buffer (20 mM tricine, 1.07 mM MgCarbonate, 2.67 mM MgSulfate, 0.1 mM Naz-EDTA, 5 mM DTT, 5 mM ATP, 0.15 mg/ml CoA, 0.5 mM Luciferin), mixed briefly, and run in a Perkin Elmer Victor 5 luminometer. Thus, the functional NHR-promoter screen was used to observe the transcriptional activity of 29 promoters from various physiological pathways including inflammation, lipid and sugar metabolism, cholesterol transport, xenobiotic metabolism, and circadian rhythm.
(§2) The promoters that facilitate transcription of the indicated gene products that were tested using the protocols described herein are listed in the first row of the table. The nuclear hormone receptors and, where applicable, ligands that were assayed for their transcriptional effects on the promoters are listed in the first column of the table. The data represent the luciferase activity of each sample normalized to both the lacZ activity of that sample and to a control, e.g., no NHR or ligand, as customary in the art. As described previously, these normalizations allow the transcriptional activity of each reporter cell to be compared to other samples.
(§3) Tables 7-40 show the transcriptional effects of the hormone receptors, and, where applicable, ligands (orphan receptors are screened without ligand), on each individual promoter. […] The control data of each table are shown in their last rows.

[2] = tested on: RevErba promoter; experiment: NHR-promoter luciferase screen, RevErba (RVRa) promoter; assay type: cell-based; parameters: key to mRevErba promoter reporter activity / Normalized Luc. act., normalized to control: luciferase activity normalized to lacZ and to control (no NHR/ligand); details: for Luc. act., normalized to lacZ / Normalized Luc. act., normalized to control / normalized Luc. act. on a logarithmic scale (column without head, Table 33): RVRa promoter; for Luc. act., normalized to lacZ / Normalized Luc. act., normalized to control: HR component without or with ligand; for normalized Luc. act. on a logarithmic scale (column without head, Table 33): log10 of activity normalized to control; for mRevErba promoter reporter activity: transcription factor +/- ligand, control = 1.00
Method: Briefly, there were co-expressed 50 ng of each NHR/NHR homodimer or NHR/RXR heterodimer with 100 ng promoter/luciferase construct and 50 ng of LacZ (as a control for transfection efficiency) in CV-1 cells using Fugene HD (Roche) as a transfection reagent (alternatively or additionally, a CMV-YFP construct can be used as a transfection control). Each of the nuclear hormone receptors that were used in these experiments was cloned into a pcDNA3.1 vector and comprised a C-terminally linked V5H6 tag.
as §2
The control data of each table are shown in their last rows.

[3] = tested on: hMDR1 promoter; experiment: NHR-promoter luciferase screen, hMDR1 promoter; assay type: cell-based, human; details: for Luc. act., normalized to lacZ / Normalized Luc. act., normalized to control: MDR1 promoter, HR/ligand component; for hMDR1 promoter reporter activity: transcription factor +/- ligand, control = 1.00
Method: as §1, §2, §3

[4] = tested on: mPOMC promoter; experiment: NHR-promoter luciferase screen, mPOMC promoter; assay type: cell-based, mouse; details: for Results of assays of transcription factor (+/- ligand) with mPOMC: Table 6d, luciferase activity relative to control (control = 1.00); for Luc. act., normalized to lacZ / Normalized Luc. act., normalized to control: mPOMC promoter, HR component with or without ligand; for Normalized Luc. act., normalized to control: relative to control
Method: as §1, §2, §3

[5] = tested on: mLeptin promoter; experiment: NHR-promoter luciferase screen, mLeptin promoter; assay type: cell-based, mouse; details: for Luc. act., normalized to lacZ / Normalized Luc. act., normalized to control: Table 7, mLeptin; for Results of assays of transcription factor (+/- ligand) with mLeptin: Table 6d, luciferase activity relative to control (control = 1.00)
Method: as §1, §2, §3

B1: RORa: RAR-related Orphan Receptor α (NR1F1), cDNA driver (protein, UniProt P35398 1-523, looked up)
Nuclear receptor ROR-alpha: MESAPAAPDPAASEPGSSGADAAAGSRETPLNQESARKSEPPAPVRRQSYSSTSRGISVTKKTHTSQIEIIPCKICGDKSSGIHYGVITCEGCKGFFRRSQQSNATYSCPRQKNCLIDRTSRNRCQHCRLQKCLAVGMSRDAVKFGRMSKKQRDSLYAEVQKHRMQQQQRDHQQQPGEAEPLTPTYNISANGLTELHDDLSNYIDGHTPEGSKADSAVSSFYLDIQPSPDQSGLDINGIKPEPICDYTPASGFFPYCSFTNGETSPTVSMAELEHLAQNISKSHLETCQYLREELQQITWQTFLQEEIENYQNKQREVMWQLCAIKITEAIQYVVEFAKRIDGFMELCQNDQIVLLKAGSLEVVFIRMCRAFDSQNNTVYFDGKYASPDVFKSLGCEDFISFVFEFGKSLCSMHLTEDEIALFSAFVLMSADRSWLQEKVKIEKLQQKIQLALQHVLQKNHREDGILTKLICKVSTLRALCGRHTEKLMAFKAIYPDIVRLHFPPLYKELFTSEFEPAMQIDG
With B1 the “Luc. act., normalized to lacZ” value [1] was 115.6, the “Normalized Luc. act., normalized to control” value [1] was 7.4 and the “regulation of the Bmal1 promoter” value [1] was “specific activation”. For the same molecule, the “mBmal1 promoter reporter activity” value [1] was 7.40, the “Luc. act., normalized to lacZ” value [2] was 86.91 and the “Normalized Luc. act., normalized to control” value [2] was 3.1. The “normalized Luc. act. on a logarithmic scale (column without head, Table 33)” value [2] was 0.49, the “mRevErba promoter reporter activity” value [2] was 3.11 and the “Luc. act., normalized to lacZ” value [3] was 0.1. For the same molecule, the “Normalized Luc. act., normalized to control” value [3] was 0.3, the “hMDR1 promoter reporter activity” value [3] was 0.32 and the “Results of assays of transcription factor (+/- ligand) with mPOMC” value (“Results of assays … with mPOMC” for short) [4] was 2.08. The “Luc. act., normalized to lacZ” value [4] was 143.4, the “Normalized Luc. act., normalized to control” value [4] was 2.1 and the “Luc. act., normalized to lacZ” value [5] was 2.1. The “Normalized Luc. act., normalized to control” value [5] was 0.7 and the “Results of assays of transcription factor (+/- ligand) with mLeptin” value (“Results of assays … with mLeptin” for short) [5] was 0.71.

B2: HNF4a: Hepatocyte Nuclear Factor α (NR2A1), cDNA driver (protein, UniProt P41235 1-474, looked up)
Hepatocyte nuclear factor …: MRLSKTLVDMDMADYSAALDPAYTTLEFENVQVLTMGNDTSPSEGTNLNAPNSLGVSALCAICGDRATGKHYGASSCDGCKGFFRRSVRKNHMYSCRFSRQCVVDKDKRNQCRYCRLKKCFRAGMKKEAVQNERDRISTRRSSYEDSSLPSINALLQAEVLSRQITSPVSGINGDIRAKKIASIADVCESMKEQLLVLVEWAKYIPAFCELPLDDQVALLRAHAGEHLLLGATKRSMVFKDVLLLGNDYIVPRHCPELAEMSRVSIRILDELVLPFQELQIDDNEYAYLKAIIFFDPDAKGLSDPGKIKRLRSQVQVSLEDYINDRQYDSRGRFGELLLLLPTLQSITWQMIEQIQFIKLFGMAKIDNLLQEMLLGGSPSDAPHAHHPLHPHLMQEHMGTNVIVANTMPTHLSNGQMCEWPRPRGQAATPETPQPSPPGGSGSEPYKLLPGAVATIVKPLSAIPQPTITKQEVI
In the case of B2, the “Luc. act., normalized to lacZ” value [1] is reported as 10.1, the “Normalized Luc. act., normalized to control” value [1] is reported as 0.6 and the “mBmal1 promoter reporter activity” value [1] is reported as 0.65. For the same molecule, the “Luc. act., normalized to lacZ” value [2] was 30.15, the “Normalized Luc. act., normalized to control” value [2] was 1.1 and the “normalized Luc. act. on a logarithmic scale (column without head, Table 33)” value [2] was 0.03. The “mRevErba promoter reporter activity” value [2] was 1.08, the “Luc. act., normalized to lacZ” value [3] was 0.2 and the “Normalized Luc. act., normalized to control” value [3] was 0.8. For the same molecule, the “hMDR1 promoter reporter activity” value [3] was 0.77, the “Results of assays … with mPOMC” value [4] was 0.90 and the “Luc. act., normalized to lacZ” value [4] was 62.0. The “Normalized Luc. act., normalized to control” value [4] was 0.9, the “Luc. act., normalized to lacZ” value [5] was 2.5 and the “Normalized Luc. act., normalized to control” value [5] was 0.8. The “Results of assays … with mLeptin” value [5] was 0.84.

B3: RORg: RAR-related Orphan Receptor γ (NR1F3), cDNA driver (protein, UniProt P51449 1-518, looked up)
Nuclear receptor ROR-gamma: MDRAPQRQHRASRELLAAKKTHTSQIEVIPCKICGDKSSGIHYGVITCEGCKGFFRRSQRCNAAYSCTRQQNCPIDRTSRNRCQHCRLQKCLALGMSRDAVKFGRMSKKQRDSLHAEVQKQLQQRQQQQQEPVVKTPPAGAQGADTLTYTLGLPDGQLPLGSSPDLPEASACPPGLLKASGSGPSYSNNLAKAGLNGASCHLEYSPERGKAEGRESFYSTGSQLTPDRCGLRFEEHRHPGLGELGQGPDSYGSPSFRSTPEAPYASLTEIEHLVQSVCKSYRETCQLRLEDLLRQRSNIFSREEVTGYQRKSMWEMWERCAHHLTEAIQYVVEFAKRLSGFMELCQNDQIVLLKAGAMEVVLVRMCRAYNADNRTVFFEGKYGGMELFRALGCSELISSIFDFSHSLSALHFSEDEIALYTALVLINAHRPGLQEKRKVEQLQYNLELAFHHHLCKTHRQSILAKLPPKGKLRSLCSQHVERLQIFQHLHPIVVQAAFPPLYKELFSTETESPVGLSK
With B3 the “Luc. act., normalized to lacZ” value [1] was 58.9, the “Normalized Luc. act., normalized to control” value [1] was 3.8 and the “regulation of the Bmal1 promoter” value [1] was “specific activation”. For the same molecule, the “mBmal1 promoter reporter activity” value [1] was 3.77, the “Luc. act., normalized to lacZ” value [2] was 67.79 and the “Normalized Luc. act., normalized to control” value [2] was 2.4. For the same molecule, the “normalized Luc. act. on a logarithmic scale (column without head, Table 33)” value [2] was 0.38, the “mRevErba promoter reporter activity” value [2] was 2.42 and the “Luc. act., normalized to lacZ” value [3] was 0.2. For the same molecule, the “Normalized Luc. act., normalized to control” value [3] was 0.5, the “hMDR1 promoter reporter activity” value [3] was 0.54 and the “Results of assays … with mPOMC” value [4] was 1.30. The “Luc. act., normalized to lacZ” value [4] was 89.5, the “Normalized Luc. act., normalized to control” value [4] was 1.3 and the “Luc. act., normalized to lacZ” value [5] was 2.6. For the same molecule, the “Normalized Luc. act., normalized to control” value [5] was 0.9 and the “Results of assays … with mLeptin” value [5] was 0.87.
